Results as given in patent US10941182 (Amgen, dated 2021).
Starred links: 1 amine or outer side, 2 acyl side, 3 side chain; linkers in the order of their positions; H or OH if unused. Non-standard residues stand in square brackets, D forms with d. Primed or numbered codes have the meaning given here. *: point of attachment. dBip = N[C@H](Cc1ccc(-c2ccccc2)cc1)C(=O)O; Oic = O=C(O)[C@@H]1C[C@@H]2CCCC[C@@H]2N1; Phe(4-Cl) = N[C@@H](Cc1ccc(Cl)cc1)C(=O)O; dPhe(4-Cl) = N[C@H](Cc1ccc(Cl)cc1)C(=O)O; Heptadecanoyl = CCCCCCCCCCCCCCCCC(=O)*; Phe(4-I) = N[C@@H](Cc1ccc(I)cc1)C(=O)O; γGlu = O=C(O)[C@H](CCC(=O)[*:2])N[*:1]; NMeR = CN[C@@H](CCCNC(=N)N)C(=O)O; Tridecanoyl = CCCCCCCCCCCCC(=O)*; hArg = N=C(N)NCCCC[C@H](N)C(=O)O; Tic = O=C(O)[C@@H]1Cc2ccccc2CN1; Cha = N[C@@H](CC1CCCCC1)C(=O)O; NMeL = CN[C@@H](CC(C)C)C(=O)O; Nle = CCCC[C@H](N)C(=O)O; Pip′ = not defined here; AEEA = NCCOCCOCC(=O)O

B1: apelin polypeptide SEQ ID NO: 222 (peptide)
peptide: Tridecanoyl-[γGlu][AEEA][AEEA]QRP[hArg][NMeL]SHKG[Oic][Phe(4-I)]P[dBip]-OH
SMILES: CCCCCCCCCCCCC(=O)N[C@@H](CCC(=O)NCCOCCOCC(=O)NCCOCCOCC(=O)N[C@@H](CCC(N)=O)C(=O)N[C@@H](CCCNC(=N)N)C(=O)N1CCC[C@H]1C(=O)N[C@@H](CCCCNC(=N)N)C(=O)N(C)[C@@H](CC(C)C)C(=O)N[C@@H](CO)C(=O)N[C@@H](Cc1c[nH]cn1)C(=O)N[C@@H](CCCCN)C(=O)NCC(=O)N1[C@H](C(=O)N[C@@H](Cc2ccc(I)cc2)C(=O)N2CCC[C@H]2C(=O)N[C@H](Cc2ccc(-c3ccccc3)cc2)C(=O)O)C[C@@H]2CCCC[C@@H]21)C(=O)O
B2: apelin polypeptide SEQ ID NO: 223 (peptide)
peptide: Tridecanoyl-[γGlu][AEEA][AEEA]QRP[hArg][Cha]SHKG[Oic][Phe(4-I)]P[dBip]-OH
SMILES: CCCCCCCCCCCCC(=O)N[C@@H](CCC(=O)NCCOCCOCC(=O)NCCOCCOCC(=O)N[C@@H](CCC(N)=O)C(=O)N[C@@H](CCCNC(=N)N)C(=O)N1CCC[C@H]1C(=O)N[C@@H](CCCCNC(=N)N)C(=O)N[C@@H](CC1CCCCC1)C(=O)N[C@@H](CO)C(=O)N[C@@H](Cc1c[nH]cn1)C(=O)N[C@@H](CCCCN)C(=O)NCC(=O)N1[C@H](C(=O)N[C@@H](Cc2ccc(I)cc2)C(=O)N2CCC[C@H]2C(=O)N[C@H](Cc2ccc(-c3ccccc3)cc2)C(=O)O)C[C@@H]2CCCC[C@@H]21)C(=O)O
B3: apelin polypeptide SEQ ID NO: 224 (peptide)
peptide: Tridecanoyl-[γGlu][AEEA][AEEA]QRP[dR][Cha]SHKG[Oic][Phe(4-I)]P[dBip]-OH
SMILES: CCCCCCCCCCCCC(=O)N[C@@H](CCC(=O)NCCOCCOCC(=O)NCCOCCOCC(=O)N[C@@H](CCC(N)=O)C(=O)N[C@@H](CCCNC(=N)N)C(=O)N1CCC[C@H]1C(=O)N[C@H](CCCNC(=N)N)C(=O)N[C@@H](CC1CCCCC1)C(=O)N[C@@H](CO)C(=O)N[C@@H](Cc1c[nH]cn1)C(=O)N[C@@H](CCCCN)C(=O)NCC(=O)N1[C@H](C(=O)N[C@@H](Cc2ccc(I)cc2)C(=O)N2CCC[C@H]2C(=O)N[C@H](Cc2ccc(-c3ccccc3)cc2)C(=O)O)C[C@@H]2CCCC[C@@H]21)C(=O)O
B4: apelin polypeptide SEQ ID NO: 225 (peptide)
peptide: Tridecanoyl-[γGlu][AEEA][AEEA]Q[hArg]P[dR][NMeL]SHKG[Oic][Nle]P[Phe(4-Cl)]-OH
SMILES: CCCCCCCCCCCCC(=O)N[C@@H](CCC(=O)NCCOCCOCC(=O)NCCOCCOCC(=O)N[C@@H](CCC(N)=O)C(=O)N[C@@H](CCCCNC(=N)N)C(=O)N1CCC[C@H]1C(=O)N[C@H](CCCNC(=N)N)C(=O)N(C)[C@@H](CC(C)C)C(=O)N[C@@H](CO)C(=O)N[C@@H](Cc1c[nH]cn1)C(=O)N[C@@H](CCCCN)C(=O)NCC(=O)N1[C@H](C(=O)N[C@@H](CCCC)C(=O)N2CCC[C@H]2C(=O)N[C@@H](Cc2ccc(Cl)cc2)C(=O)O)C[C@@H]2CCCC[C@@H]21)C(=O)O
B5: apelin polypeptide SEQ ID NO: 226 (peptide)
peptide: Tridecanoyl-[γGlu][AEEA][AEEA]Q[hArg]P[dR][NMeL]SHKG[Oic][Phe(4-I)]P[Phe(4-Cl)]-OH
SMILES: CCCCCCCCCCCCC(=O)N[C@@H](CCC(=O)NCCOCCOCC(=O)NCCOCCOCC(=O)N[C@@H](CCC(N)=O)C(=O)N[C@@H](CCCCNC(=N)N)C(=O)N1CCC[C@H]1C(=O)N[C@H](CCCNC(=N)N)C(=O)N(C)[C@@H](CC(C)C)C(=O)N[C@@H](CO)C(=O)N[C@@H](Cc1c[nH]cn1)C(=O)N[C@@H](CCCCN)C(=O)NCC(=O)N1[C@H](C(=O)N[C@@H](Cc2ccc(I)cc2)C(=O)N2CCC[C@H]2C(=O)N[C@@H](Cc2ccc(Cl)cc2)C(=O)O)C[C@@H]2CCCC[C@@H]21)C(=O)O
B6: apelin polypeptide SEQ ID NO: 18 (peptide)
peptide: Ac-[dR][hArg]Q[hArg]P[dR][NMeL]SHKG[Oic][Phe(4-I)]P[dBip]-OH
B7: apelin polypeptide SEQ ID NO: 227 (peptide)
peptide: Tridecanoyl-[γGlu][AEEA][AEEA]Q[hArg]P[dR][NMeL]SHKG[Oic][Nle]P[dBip]-OH
SMILES: CCCCCCCCCCCCC(=O)N[C@@H](CCC(=O)NCCOCCOCC(=O)NCCOCCOCC(=O)N[C@@H](CCC(N)=O)C(=O)N[C@@H](CCCCNC(=N)N)C(=O)N1CCC[C@H]1C(=O)N[C@H](CCCNC(=N)N)C(=O)N(C)[C@@H](CC(C)C)C(=O)N[C@@H](CO)C(=O)N[C@@H](Cc1c[nH]cn1)C(=O)N[C@@H](CCCCN)C(=O)NCC(=O)N1[C@H](C(=O)N[C@@H](CCCC)C(=O)N2CCC[C@H]2C(=O)N[C@H](Cc2ccc(-c3ccccc3)cc2)C(=O)O)C[C@@H]2CCCC[C@@H]21)C(=O)O
B8: apelin polypeptide SEQ ID NO: 228 (peptide)
peptide: Tridecanoyl-[γGlu][AEEA][AEEA]Q[hArg]P[dR][Cha]SHKG[Oic][Nle]P[Phe(4-Cl)]-OH
SMILES: CCCCCCCCCCCCC(=O)N[C@@H](CCC(=O)NCCOCCOCC(=O)NCCOCCOCC(=O)N[C@@H](CCC(N)=O)C(=O)N[C@@H](CCCCNC(=N)N)C(=O)N1CCC[C@H]1C(=O)N[C@H](CCCNC(=N)N)C(=O)N[C@@H](CC1CCCCC1)C(=O)N[C@@H](CO)C(=O)N[C@@H](Cc1c[nH]cn1)C(=O)N[C@@H](CCCCN)C(=O)NCC(=O)N1[C@H](C(=O)N[C@@H](CCCC)C(=O)N2CCC[C@H]2C(=O)N[C@@H](Cc2ccc(Cl)cc2)C(=O)O)C[C@@H]2CCCC[C@@H]21)C(=O)O
B9: apelin polypeptide SEQ ID NO: 229 (peptide)
peptide: Tridecanoyl-[γGlu][AEEA][AEEA][hArg]Q[dR]P[NMeR][Cha]SHKG[Oic][Nle]P[Phe(4-Cl)]-OH
SMILES: CCCCCCCCCCCCC(=O)N[C@@H](CCC(=O)NCCOCCOCC(=O)NCCOCCOCC(=O)N[C@@H](CCCCNC(=N)N)C(=O)N[C@@H](CCC(N)=O)C(=O)N[C@H](CCCNC(=N)N)C(=O)N1CCC[C@H]1C(=O)N(C)[C@@H](CCCNC(=N)N)C(=O)N[C@@H](CC1CCCCC1)C(=O)N[C@@H](CO)C(=O)N[C@@H](Cc1c[nH]cn1)C(=O)N[C@@H](CCCCN)C(=O)NCC(=O)N1[C@H](C(=O)N[C@@H](CCCC)C(=O)N2CCC[C@H]2C(=O)N[C@@H](Cc2ccc(Cl)cc2)C(=O)O)C[C@@H]2CCCC[C@@H]21)C(=O)O
B10: apelin polypeptide SEQ ID NO: 234 (peptide)
peptide: Heptadecanoyl-[γGlu][AEEA][AEEA]Q[dR]P[NMeR][Cha]SHKG[Oic][Nle][Pip′][Phe(4-Cl)]-OH
B11: apelin polypeptide SEQ ID NO: 237 (peptide)
peptide: Heptadecanoyl-[γGlu][AEEA][AEEA][dQ][hArg]P[NMeR][Cha]SHKG[Oic][Nle]P[dPhe(4-Cl)]-OH
SMILES: CCCCCCCCCCCCCCCCC(=O)N[C@@H](CCC(=O)NCCOCCOCC(=O)NCCOCCOCC(=O)N[C@H](CCC(N)=O)C(=O)N[C@@H](CCCCNC(=N)N)C(=O)N1CCC[C@H]1C(=O)N(C)[C@@H](CCCNC(=N)N)C(=O)N[C@@H](CC1CCCCC1)C(=O)N[C@@H](CO)C(=O)N[C@@H](Cc1c[nH]cn1)C(=O)N[C@@H](CCCCN)C(=O)NCC(=O)N1[C@H](C(=O)N[C@@H](CCCC)C(=O)N2CCC[C@H]2C(=O)N[C@H](Cc2ccc(Cl)cc2)C(=O)O)C[C@@H]2CCCC[C@@H]21)C(=O)O
B12: apelin polypeptide SEQ ID NO: 238 (peptide)
peptide: Heptadecanoyl-[γGlu][AEEA][AEEA]Q[dR]P[NMeR][Cha]SHKG[Oic][Nle]P[Tic]-OH
SMILES: CCCCCCCCCCCCCCCCC(=O)N[C@@H](CCC(=O)NCCOCCOCC(=O)NCCOCCOCC(=O)N[C@@H](CCC(N)=O)C(=O)N[C@H](CCCNC(=N)N)C(=O)N1CCC[C@H]1C(=O)N(C)[C@@H](CCCNC(=N)N)C(=O)N[C@@H](CC1CCCCC1)C(=O)N[C@@H](CO)C(=O)N[C@@H](Cc1c[nH]cn1)C(=O)N[C@@H](CCCCN)C(=O)NCC(=O)N1[C@H](C(=O)N[C@@H](CCCC)C(=O)N2CCC[C@H]2C(=O)N2Cc3ccccc3C[C@H]2C(=O)O)C[C@@H]2CCCC[C@@H]21)C(=O)O
B13: apelin polypeptide SEQ ID NO: 239 (peptide)
peptide: Heptadecanoyl-[γGlu][AEEA][AEEA][hArg]Q[dR]P[NMeR][Cha]SHKG[Oic][Nle][Pip′][Phe(4-Cl)]-OH

What was measured:
[1] = target: T1, human APJ receptor (human, UniProt P35414 1-380); assay: cell-based or functional assay
T1 sequence (looked up): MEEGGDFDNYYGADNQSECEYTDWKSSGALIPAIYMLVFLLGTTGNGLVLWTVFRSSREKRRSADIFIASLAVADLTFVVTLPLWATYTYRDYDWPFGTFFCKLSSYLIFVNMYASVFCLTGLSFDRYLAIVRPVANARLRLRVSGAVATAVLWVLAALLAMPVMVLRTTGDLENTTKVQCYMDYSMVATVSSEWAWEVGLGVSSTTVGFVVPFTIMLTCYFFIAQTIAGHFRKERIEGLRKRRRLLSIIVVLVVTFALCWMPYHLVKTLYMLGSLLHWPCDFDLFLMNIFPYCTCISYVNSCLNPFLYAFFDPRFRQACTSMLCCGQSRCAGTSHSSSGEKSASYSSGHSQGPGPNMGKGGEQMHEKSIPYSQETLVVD

[2] = target: T2, rat APJ receptor (rat, UniProt Q9JHG3 1-377); assay: cell-based or functional assay
T2 sequence (looked up): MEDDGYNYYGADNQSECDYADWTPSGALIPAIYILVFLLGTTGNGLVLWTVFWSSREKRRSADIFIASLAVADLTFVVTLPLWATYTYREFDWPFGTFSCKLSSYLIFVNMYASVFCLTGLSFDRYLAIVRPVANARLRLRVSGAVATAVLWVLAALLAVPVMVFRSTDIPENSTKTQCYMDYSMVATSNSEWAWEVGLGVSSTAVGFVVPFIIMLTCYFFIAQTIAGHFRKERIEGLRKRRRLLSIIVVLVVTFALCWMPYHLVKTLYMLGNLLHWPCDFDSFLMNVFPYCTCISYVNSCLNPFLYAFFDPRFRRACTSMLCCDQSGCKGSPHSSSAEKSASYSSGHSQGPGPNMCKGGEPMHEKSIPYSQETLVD

Binder | EC50 Human APJ Receptor [1] | EC50 Rat APJ Receptor [2]
B1 | 1.23 nM | 6.87 nM
B2 | 11.3 nM | 52.8 nM
B3 | 28.2 nM | 102 nM
B4 | 3.02 nM | 47.9 nM
B5 | 20.8 nM | 91 nM
B6 | 0.468 nM | 0.523 nM
B7 | 8.77 nM | 97.5 nM
B8 | 0.484 nM | 7.91 nM
B9 | 0.235 nM | 3.29 nM
B10 | 6.05 nM | 12.5 nM
B11 | 4.96 nM | 4.89 nM
B12 | 6.68 nM | 28.5 nM
B13 | 1.45 nM | 8.61 nM
